Assay results published in US20250041437A1, “HUMANIZED MUC1 ANTIBODY AND ANTIBODY DRUG CONJUGATE” (Sun Pharma Advanced Research Company Limited, priority 2023, published 2025).
Residue numbers refer to the chain shown, from its start.

T1: MUC1-X-FL-1118 (R1108A, E1109A, N1113A, E1118A) (Homo sapiens, UniProt P15941, E1109A/E1118A/N1113A/R1108A)
T1 construct: wild-type MUC1-X extracellular domain (MUC1-X-FL-WT); His (implied by Ni-NTA purification; pET30a(+) vector); made in house; host or cells: E. coli (pET30a(+))
T1 sequence (P15941 24-115 isoform P15941-8 limits assumed): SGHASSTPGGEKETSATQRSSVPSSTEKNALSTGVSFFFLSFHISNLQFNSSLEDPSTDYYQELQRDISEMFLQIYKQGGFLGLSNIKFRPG
T1 sequence (P15941 1098-1158 R1108A/E1109A/N1113A/E1118A limits assumed): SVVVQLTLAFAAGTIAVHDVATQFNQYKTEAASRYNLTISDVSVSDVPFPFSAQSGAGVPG

T2: MUC1-X-FL-1116 (R1108A, E1109A, N1113A, D1116A) (Homo sapiens, UniProt P15941, D1116A/E1109A/N1113A/R1108A)
T2 construct: wild-type MUC1-X extracellular domain (MUC1-X-FL-WT); His (implied by Ni-NTA purification; pET30a(+) vector); made in house; host or cells: E. coli (pET30a(+))
T2 sequence (P15941 24-115 isoform P15941-8 limits assumed): T1 sequence (P15941 24-115 isoform P15941-8 limits assumed)
T2 sequence (P15941 1098-1158 R1108A/E1109A/N1113A/D1116A limits assumed): T1 sequence (P15941 1098-1158 R1108A/E1109A/N1113A/E1118A limits assumed) with D19A, A21E

T3: recombinant human MUC1-SEA (Homo sapiens, UniProt P15941)
T3 construct: on recombinant human MUC1-SEA on SPR; purchased Acrobiosystems MU1-H52H9
T3 sequence (P15941 1039-1148 limits assumed): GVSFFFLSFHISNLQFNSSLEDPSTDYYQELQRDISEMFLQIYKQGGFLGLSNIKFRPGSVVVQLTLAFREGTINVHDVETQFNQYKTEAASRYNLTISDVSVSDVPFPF

B1: chi 5F3: chimeric anti-MUC1 SEA antibody of WO 2021/186427; variable regions SEQ ID NOs: 42 and 43; parent of the humanized antibodies (antibody, V domains shown)
VH: MRVLILLCLFTAFPGVLSDVQVQESGPDLVKPSQSLSLTCTVTGHSITRGSSWHWIRQFPGNKLEWMGYIHYGGGTSYNPSLKSRISITRDTSKNQFFLQLNSVTTEDTATFFCARYSYDITYRWFFDVWGAGTTVIVSS
VL: MVSTPQFLVFLLFWIPASRGDILLTQSPAILSVSPGERVSFSCRASQNIGTSIHWYQQRKNGSPRLLIKYASESISGIPSRFSGSGSGTDFTLSINSVESEDMADYYCQQNNNWPLTFGAGTKLELK
notes: chimeric anti-MUC1 SEA antibody of WO 2021/186427; parent of the humanized antibodies
B2: HM3 LM3: variant of SP66; VH HM3 SEQ ID NO: 9, VL LM3 SEQ ID NO: 14 (antibody, V domains shown)
VH: EIQLVQSGAEVKKPGSSVKVSCKVTGHSITRGSSWHWMRQAPGQGLEWIGYIHYGGGTSYNPSLKSRATLTRDTSTNTAYMELSSLRSEDTAFYFCARYSYDITYRWFFDVWGQGTLVTVSS
VL: DIQMTQSPSTLSASVGDRVTITCRASQNIGTSIHWYQQKPGKAPKLLIKYASESISGVPSRFSGSGSGTEFTLTISSLQPDDFATYYCQQNNNWPLTFGQGTKVEVK
B3: HM4 LM2: variant of SP66; VH HM4 SEQ ID NO: 10, VL LM2 SEQ ID NO: 13 (antibody, V domains shown)
VH: B2 VH with A79F
VL: B2 VL with Y50R
B4: HM4 LM3: variant of SP66; VH HM4 SEQ ID NO: 10, VL LM3 SEQ ID NO: 14 (antibody, V domains shown)
VH: B2 VH with A79F
VL: B2 VL
B5: HM5 LM2: variant of SP66; VH HM5 SEQ ID NO: 11, VL LM2 SEQ ID NO: 13 (antibody, V domains shown)
VH: B2 VH with A68I, L70I, A79F
VL: B2 VL with Y50R
B6: HM5 LM3: variant of SP66; VH HM5 SEQ ID NO: 11, VL LM3 SEQ ID NO: 14 (antibody, V domains shown)
VH: B2 VH with A68I, L70I, A79F
VL: B2 VL
B7: HM2 LM2: variant of SP66; VH HM2 SEQ ID NO: 8, VL LM2 SEQ ID NO: 13 (antibody, V domains shown)
VH: B2 VH with A68I, L70I
VL: B2 VL with Y50R
B8: HM2 LM3: variant of SP66; VH HM2 SEQ ID NO: 8, VL LM3 SEQ ID NO: 14 (antibody, V domains shown)
VH: B2 VH with A68I, L70I
VL: B2 VL
B9: HM3 LM2: variant of SP66; VH HM3 SEQ ID NO: 9, VL LM2 SEQ ID NO: 13 (antibody, V domains shown)
VH: B2 VH
VL: B2 VL with Y50R

Experiments:
[1] = target: T1, MUC1-X-FL-1118 (R1108A, E1109A, N1113A, E1118A); assay: Epitope mapping ELISA, mutant MUC1-X-FL-1118; type: binding; details: mutation at position 1118
[2] = target: T2, MUC1-X-FL-1116 (R1108A, E1109A, N1113A, D1116A); assay: Epitope mapping ELISA, mutant MUC1-X-FL-1116; type: binding; details: mutation at position 1116
[3] = target: T3, recombinant human MUC1-SEA; assay: Binding strength by Surface Plasmon Resonance (SPR); details: Table 2, variants of humanized anti-MUC1 5F3 mAb
Procedure: Binding strength assessment using Surface Plasmon Resonance (SPR): MUC1 antigen (Acrobiosystems, Cat: MU1-H52H9) was captured on the anti-His immobilized on CM5 chip at 5 μl/min flow rate for 60 s. Post this concentration range of 0-50 nM of antibody or ADC is passed over MUC1 antigen at a flow rate of 30 μl/min flow rate for 120 s, keeping dissociation time of 1800 s at 25°. The dose response generated is evaluated on BIAevaluation software for the calculation of affinity of antibody to antigen as measured by dissociation constant (KD).

Molecule | binding to MUC1 mutant (in words) [1] | binding to MUC1 mutant (in words) [2] | ka [3] [M⁻¹ s⁻¹]
B1 | lost | maintained | 4.39e+06
B2 | – | – | 4.47e+07
B3 | – | – | 4.08e+06
B4 | – | – | 2.88e+06
B5 | – | – | 4.8e+06
B6 | – | – | 3.97e+06
B7 | – | – | 1.77e+06
B8 | – | – | 3.14e+06
B9 | – | – | 2.65e+06
